Source: the supplement of paper PMC10724198
± gives the standard deviation of the averaged measurements.

Legend:
Saccharomyces cerevisiae [1] = assay: protein stability index of tFT-peptide fusion (C-terminal peptide) (PSI (0-1 scale)); higher = more stable (slower turnover)
Experimental: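 MPS profiling in S. cerevisiae of the tFT-X12 degron library: putative degron peptides plus stable controls, 12 aa, fused to the C-terminus of a sfGFP-mCherry timer. Cells are FACS-sorted into 8 mCherry/sfGFP bins and deep-sequenced. PSI runs from 0 (unstable) to 1 (stable). Backgrounds are wild type, das1Δ and doa10Δ at 30 °C, and wild type, das1Δ, cdc34-1 and cdc53-1 at 37 °C; 2-3 technical replicates each.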

Saccharomyces cerevisiae [2] = assay: as above; conditions: genetic background: wild type; temperature: 30 C
[3] = genetic background: cdc34-1, temperature: 37 C
[4] = genetic background: cdc53-1, temperature: 37 C
[5] = genetic background: das1 deletion, temperature: 30 C
[6] = genetic background: das1 deletion, temperature: 37 C
[7] = genetic background: doa10 deletion, temperature: 30 C
[8] = genetic background: wild type, temperature: 30 C
[9] = genetic background: wild type, temperature: 37 C
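Note: PSI is a weighted mean of sequencing reads over stability bins, variants kept only with over 10 reads, mCherry proximal and sfGFP distal, peptide attached via GGGS linker.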

| Sequence | protein stability index (Saccharomyces cerevisiae [1]; [3]) | protein stability index (Saccharomyces cerevisiae [1]; [4]) | protein stability index (Saccharomyces cerevisiae [1]; [5]) | protein stability index (Saccharomyces cerevisiae [1]; [6]) | protein stability index (Saccharomyces cerevisiae [1]; [7]) | protein stability index (Saccharomyces cerevisiae [1]; [8]) | protein stability index (Saccharomyces cerevisiae [1]; [9]) | protein stability index (Saccharomyces cerevisiae [2]) |
| --- | --- | --- | --- | --- | --- | --- | --- | --- |
| ALFLYNCVVVTD | 0.0493 ± 0.0086 | 0.137 ± 0.018 | 0.146 ± 0.04 | 0.25 ± 0.015 | 0.132 ± 0.011 | 0.143 ± 0.045 | 0.188 ± 0.056 | 0.136 ± 0.0097 |
| ALLYIVVGWSLS | 0.0455 ± 0.011 | 0.185 ± 0.033 | 0.167 ± 0.026 | 0.285 ± 0.025 | 0.12 ± 0.019 | 0.145 ± 0.027 | 0.231 ± 0.0024 | 0.24 ± 0.074 |
| ALRLVAFFWVPG | 0.482 ± 0.063 | 0.536 ± 0.038 | 0.427 ± 0.025 | 0.5392 ± 0.0037 | 0.415 ± 0.035 | 0.4099 ± 0.0011 | 0.5126 ± 0.0048 | 0.422 ± 0.0081 |
| ALTLSYAIKLKV | 0.36 ± 0.02 | 0.395 ± 0.022 | 0.313 ± 0.032 | 0.4594 ± 0.00077 | 0.248 ± 0.0066 | 0.265 ± 0.025 | 0.401 ± 0.027 | 0.372 ± 0.014 |
| AMFQLRLLVGSV | 0.489 ± 0.036 | 0.508 ± 0.018 | 0.386 ± 0.037 | 0.5436 ± 0.0049 | 0.36 ± 0.016 | 0.391 ± 0.0056 | 0.5001 ± 0.0027 | 0.499 ± 0.033 |
| APASFRVLISAF | 0.021 ± 0.0017 | 0.0368 ± 0.0029 | 0.118 ± 0.035 | 0.102 ± 0.013 | 0.0642 ± 0.012 | 0.0969 ± 0.034 | 0.0646 ± 0.018 | 0.136 ± 0.0083 |
| ARFFFFCVGILI | 0.379 ± 0.0081 | 0.474 ± 0.067 | 0.339 ± 0.066 | 0.503 ± 0.046 | 0.295 ± 0.035 | 0.354 ± 0.017 | 0.4581 ± 0.0031 | 0.378 ± 0.035 |
| ARKWVAVTVTLW | 0.137 ± 0.038 | 0.232 ± 0.013 | 0.187 ± 0.036 | 0.3519 ± 0.00085 | 0.148 ± 0.021 | 0.189 ± 0.029 | 0.317 ± 0.011 | 0.267 ± 0.043 |
| ARVSLSFVSVSA | 0.4168 ± 0.004 | 0.442 ± 0.012 | 0.279 ± 0.03 | 0.494 ± 0.007 | 0.225 ± 0.0052 | 0.281 ± 0.014 | 0.4672 ± 0.0023 | 0.404 ± 0.015 |
| ARWNTDRRRRQL | 0.6089 ± 0.0047 | 0.711 ± 0.024 | 0.688 ± 0.045 | 0.7022 ± 0.0017 | 0.236 ± 0.0035 | 0.253 ± 0.034 | 0.502 ± 0.025 | 0.421 ± 0.017 |
| ASIEVGNVIKQM | 0.672 ± 0.051 | 0.7189 ± 0.0025 | 0.627 ± 0.036 | 0.7202 ± 0.0061 | 0.375 ± 0.0075 | 0.43 ± 0.019 | 0.632 ± 0.027 | 0.518 ± 0.037 |
| ASSSPAPYAPYT | 0.7006 ± 0.0052 | 0.7559 ± 0.0043 | 0.647 ± 0.031 | 0.76 ± 0.029 | 0.634 ± 0.03 | 0.642 ± 0.025 | 0.744 ± 0.017 | 0.635 ± 0.23 |
| ATAVMILCFRWC | 0.392 ± 0.0051 | 0.492 ± 0.018 | 0.329 ± 0.041 | 0.526 ± 0.013 | 0.2872 ± 0.0016 | 0.308 ± 0.015 | 0.4711 ± 0.00051 | 0.419 ± 0.053 |
| AVLAALVSTLAG | 0.548 ± 0.019 | 0.565 ± 0.0091 | 0.383 ± 0.024 | 0.5888 ± 0.0053 | 0.349 ± 0.013 | 0.406 ± 0.028 | 0.553 ± 0.026 | 0.4785 ± 0.00075 |
| AVPTSPYSLIVY | 0.524 ± 0.0083 | 0.495 ± 0.088 | 0.367 ± 0.0063 | 0.54146 ± 0.00044 | 0.326 ± 0.011 | 0.337 ± 0.021 | 0.485 ± 0.011 | 0.476 ± 0.022 |
| AWGSWTLCVAVH | 0.0257 ± 0.0088 | 0.0323 ± 0.0061 | 0.0888 ± 0.043 | 0.0713 ± 0.01 | 0.07331 ± 0.00055 | 0.089 ± 0.027 | 0.0602 ± 0.015 | 0.151 ± 0.011 |
| AWWMALAVPIVA | 0.02 ± 0.0012 | 0.0219 ± 0.0076 | 0.103 ± 0.025 | 0.0676 ± 0.013 | 0.0817 ± 0.02 | 0.1 ± 0.023 | 0.062 ± 0.00098 | 0.0514 ± 0.042 |
| CCFVGLRYVLWV | 0.431 ± 0.022 | 0.5 ± 0.018 | 0.345 ± 0.029 | 0.531 ± 0.0061 | 0.278 ± 0.012 | 0.288 ± 0.0082 | 0.462 ± 0.015 | 0.365 ± 0.009 |
| CCLGVIASFIVW | 0.247 ± 0.01 | 0.435 ± 0.15 | 0.284 ± 0.036 | 0.455 ± 0.024 | 0.236 ± 0.0065 | 0.254 ± 0.036 | 0.408 ± 0.0049 | 0.3579 ± 0.0021 |
| CFLLSYRWVFLC | 0.0855 ± 0.0055 | 0.0678 ± 0.0095 | 0.177 ± 0.033 | 0.2381 ± 0.0016 | 0.0531 ± 0.0053 | 0.0411 ± 0.018 | 0.0605 ± 0.03 | 0.0949 ± 0.027 |

| Sequence | protein stability index (Saccharomyces cerevisiae [1]; [3]) | protein stability index (Saccharomyces cerevisiae [1]; [4]) | protein stability index (Saccharomyces cerevisiae [1]; [5]) | protein stability index (Saccharomyces cerevisiae [1]; [6]) | protein stability index (Saccharomyces cerevisiae [1]; [7]) | protein stability index (Saccharomyces cerevisiae [1]; [8]) | protein stability index (Saccharomyces cerevisiae [1]; [9]) | protein stability index (Saccharomyces cerevisiae [2]) |
| --- | --- | --- | --- | --- | --- | --- | --- | --- |
| CFSIPLVILNVL | 0.468 ± 0.018 | 0.496 ± 0.02 | 0.431 ± 0.018 | 0.531 ± 0.025 | 0.335 ± 0.0063 | 0.338 ± 0.02 | 0.455 ± 0.0097 | 0.413 ± 0.0076 |
| CFWLLSSLLLFL | 0.462 ± 0.016 | 0.474 ± 0.0089 | 0.429 ± 0.017 | 0.5398 ± 0.0016 | 0.492 ± 0.0067 | 0.416 ± 0.034 | 0.514 ± 0.0075 | 0.453 ± 0.019 |
| CFYVGFLGYFVF | 0.447 ± 0.026 | 0.556 ± 0.005 | 0.357 ± 0.04 | 0.55 ± 0.027 | 0.342 ± 0.0064 | 0.367 ± 0.011 | 0.505 ± 0.014 | 0.42 ± 0.0044 |
| CGLGKVLGWRWV | 0.643 ± 0.036 | 0.7267 ± 0.002 | 0.64 ± 0.015 | 0.745 ± 0.023 | 0.185 ± 0.0019 | 0.227 ± 0.01 | 0.5193 ± 0.0018 | 0.4241 ± 0.0014 |
| CGPLLVTLVLSM | 0.445 ± 0.045 | 0.423 ± 0.02 | 0.305 ± 0.032 | 0.5011 ± 0.0028 | 0.304 ± 0.01 | 0.306 ± 0.018 | 0.476 ± 0.012 | 0.404 ± 0.0049 |
| CLAWWLGRVWVC | 0.184 ± 0.018 | 0.225 ± 0.0095 | 0.219 ± 0.027 | 0.364 ± 0.0011 | 0.115 ± 0.011 | 0.0919 ± 0.017 | 0.105 ± 0.0053 | 0.141 ± 0.006 |
| CLILGLFSLIFL | 0.525 ± 0.061 | 0.5644 ± 0.00097 | 0.452 ± 0.018 | 0.561 ± 0.011 | 0.4758 ± 0.0028 | 0.441 ± 0.016 | 0.531 ± 0.056 | 0.482 ± 0.027 |
| CLRVSFFFWLFA | 0.465 ± 0.017 | 0.562 ± 0.0068 | 0.392 ± 0.041 | 0.553 ± 0.0073 | 0.224 ± 0.0084 | 0.263 ± 0.017 | 0.424 ± 0.0084 | 0.351 ± 0.016 |
| CRFYIRITRRYS | 0.491 ± 0.017 | 0.576 ± 0.024 | 0.541 ± 0.041 | 0.584 ± 0.032 | 0.156 ± 0.025 | 0.132 ± 0.033 | 0.255 ± 0.031 | 0.21 ± 0.025 |
| CRLLVFGLCVGA | 0.292 ± 0.012 | 0.332 ± 0.0083 | 0.228 ± 0.046 | 0.419 ± 0.0084 | 0.189 ± 0.0062 | 0.237 ± 0.022 | 0.39 ± 0.0056 | 0.342 ± 0.014 |
| CRWHLRIVRGLM | 0.5609 ± 0.0048 | 0.665 ± 0.00068 | 0.593 ± 0.01 | 0.6603 ± 0.0027 | 0.29 ± 0.019 | 0.276 ± 0.056 | 0.415 ± 0.019 | 0.377 ± 0.0026 |
| CSKGLSILLLLL | 0.636 ± 0.055 | 0.672 ± 0.028 | 0.469 ± 0.021 | 0.634 ± 0.028 | 0.301 ± 0.018 | 0.321 ± 0.034 | 0.53 ± 0.012 | 0.41 ± 0.0064 |
| CSRDVFLFIKFL | 0.391 ± 0.023 | 0.544 ± 0.018 | 0.457 ± 0.0096 | 0.5679 ± 0.002 | 0.0736 ± 0.035 | 0.075 ± 0.019 | 0.127 ± 0.037 | 0.132 ± 0.02 |
| CSSLIMIITCVN | 0.2613 ± 0.00064 | 0.289 ± 0.013 | 0.244 ± 0.031 | 0.4 ± 0.017 | 0.0883 ± 0.023 | 0.115 ± 0.0091 | 0.122 ± 0.027 | 0.199 ± 0.046 |
| CTESVYIIRFML | 0.638 ± 0.045 | 0.661 ± 0.025 | 0.568 ± 0.025 | 0.662 ± 0.02 | 0.222 ± 0.003 | 0.253 ± 0.035 | 0.466 ± 0.029 | 0.341 ± 0.084 |
| CVEACVWYNAGL | 0.745 ± 0.046 | 0.782 ± 0.024 | 0.662 ± 0.024 | 0.774 ± 0.027 | 0.6577 ± 0.004 | 0.687 ± 0.031 | 0.764 ± 0.015 | 0.7382 ± 0.0062 |
| CVILVVISGLLG | 0.166 ± 0.035 | 0.315 ± 0.039 | 0.199 ± 0.039 | 0.3938 ± 0.0035 | 0.178 ± 0.013 | 0.217 ± 0.03 | 0.3491 ± 0.0021 | 0.345 ± 0.078 |
| CVPGPRWWYHSA | 0.671 ± 0.031 | 0.755 ± 0.015 | 0.685 ± 0.031 | 0.775 ± 0.011 | 0.233 ± 0.0045 | 0.272 ± 0.019 | 0.53465 ± 0.00023 | 0.446 ± 0.0059 |
| CWFGLVSLFWVV | 0.49 ± 0.051 | 0.52 ± 0.012 | 0.421 ± 0.04 | 0.576 ± 0.0068 | 0.275 ± 0.0067 | 0.299 ± 0.015 | 0.434 ± 0.016 | 0.429 |
